Measured values from patent publication US20240043883A1 (Board of Trustees of Michigan State University, priority 2021, published 2024).

How the values were obtained:
[1] = target: T1, Corynebacterium glutamicum Cg10062 variant E114N, SEQ ID NO: 62 (Corynebacterium glutamicum, UniProt Q8NU77, E115N); test: Michaelis-Menten kinetics of ACA hydration, coupled enzyme assay (MSAD/ADH, NADH oxidation at 340 nm)
T1 sequence (Q8NU77 with tags, fused parts or gaps E115N): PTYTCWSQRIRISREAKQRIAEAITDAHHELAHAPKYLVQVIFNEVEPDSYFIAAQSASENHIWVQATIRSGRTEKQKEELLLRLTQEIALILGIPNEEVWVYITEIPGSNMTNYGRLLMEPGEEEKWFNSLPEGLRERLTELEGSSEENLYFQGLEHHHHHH
Experimental: The amount of enzyme used in each assay was varied in order to observe measurable activity. […] The ratios of MSA and acetaldehyde formed by each enzyme was determined by the coupled enzyme assay (FIG. 13), using the differences in rates in the presence and absence of MSAD (Table 10). […] All other components used for steady-state kinetics were identical to those used in the initial screening assays.

[2] = target: engineered phosphite dehydrogenase PTDH (12x Opt PTDH) from Pseudomonas stutzeri, SEQ ID NO: 73 (Stutzerimonas stutzeri, UniProt O69054, A319E/A325V/C336D/D13E/E130K/E175A/E332N/I150F/I313L/L276Q/M26I/Q132R/Q137R/Q215L/R275Q/V315A/V71I); test: Michaelis-Menten kinetics of PTDH with sodium phosphite, reduction of NADP^+ at 340 nm; assay type: biochemical; conditions: sodium phosphite 10-1000 μM, NADP^+ 0.3 mM; 100 mM sodium phosphate pH 8.0, 25 °C
Chain of engineered phosphite dehydrogenase PTDH (12x Opt PTDH) from Pseudomonas stutzeri, SEQ ID NO: 73 (O69054 other isoform, or with tags, fused parts or gaps with the stated changes): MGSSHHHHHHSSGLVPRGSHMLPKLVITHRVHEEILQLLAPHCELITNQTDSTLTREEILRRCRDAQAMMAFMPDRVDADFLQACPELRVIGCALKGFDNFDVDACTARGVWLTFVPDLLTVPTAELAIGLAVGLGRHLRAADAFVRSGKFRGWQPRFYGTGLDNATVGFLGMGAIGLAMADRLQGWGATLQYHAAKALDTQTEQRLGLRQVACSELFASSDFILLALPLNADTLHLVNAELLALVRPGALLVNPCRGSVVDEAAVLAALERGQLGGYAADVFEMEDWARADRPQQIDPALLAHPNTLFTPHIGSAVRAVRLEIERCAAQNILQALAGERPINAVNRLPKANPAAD
Experimental: All assays were carried out in triplicate at 25° C. in 100 mM sodium phosphate pH 8.0 in a final volume of 200 μL, unless otherwise specified. All stock solutions were prepared in 100 mM sodium phosphate pH 8.0, unless otherwise specified. A sodium phosphite stock solution was prepared by dissolving an appropriate amount of the solid in a volumetric flask with water.
The assay contained PTDH (0.05 mg mL^−1, 10 μL of a 1 mg mL^−1 stock) and NADP^+ (0.3 mM, 10 μL of a 5 mg mL^−1 stock). The assays were initiated with the addition of sodium phosphite in varying concentrations (10-1000 μM). See. FIG. 23.

[3] = substrate: C#CC(=O)O; test: purified protein, by the assay type; conditions: other: ACA, 100 mM sodium phosphate pH 8.0, 25 °C
[4] = substrate: O=CCC(=O)O; test: purified protein, by the assay type; assay type: biochemical, Escherichia coli; conditions: other: MSA generated in situ from ACA (10-2000 μM), NADPH 0.3 mM, 100 mM sodium phosphate pH 8.0, 25 °C
Experimental: YdfG was characterized using the coupled enzyme assay show in FIG. 19. All assays were carried out in triplicate at 25° C. in 100 mM sodium phosphate pH 8.0, in a final volume of 200 μL, unless otherwise specified. All stock solutions prepared for the assays were prepared in 100 mM sodium phosphate pH 8.0. […] The assay contained a large excess of Cg10062 (E114N) (2 U), YdfG (0.005 mg mL^−1, 10 μL of a 0.1 mg mL^−1 stock) and NADPH (0.3 mM, 10 μL of a 5 mg mL^−1 stock).

[5] = substrate: O=CCC(=O)O; test: purified protein, by the assay type; assay type: biochemical, Pseudomonas putida KT2440; conditions: other: MSA generated in situ from ACA (50-10,000 μM), NADH 0.1 mg/mL, 100 mM potassium phosphate pH 8.0, 25 °C
Experimental: MmsB was characterized using the coupled enzyme assay show in FIG. 28. All assays were carried out in triplicate at 25° C. in 100 mM potassium phosphate pH 8.0, at a final volume of 1 mL. All stock solutions used for the assays were prepared in 100 mM potassium phosphate pH 8.0. […] The assay contained Cg10062 (E114N) (0.8 U), MmsB (0.001 mg mL−1, 10 μL of a 0.1 mg mL−1 stock) and NADH (0.1 mg/mL, 20 μL of a 5 mg mL−1 stock). […] All other components and methods used for steady-state kinetics were identical to those described in Example 5.

[6] = Coupled enzyme assay (ADH, with and without MSAD): hydratase and hydratase/decarboxylase activity and product profile of Cg10062 and variants; assay type: biochemical; conditions: for Rate in the absence of MSAD / Rate in the presence of MSAD: ACA 0.5 mM, pH 8, enzyme final concentration differs per variant (0.025-1.50 mg mL^−1), rates not directly comparable; for Product Ratio (%) acetaldehyde / Product Ratio (%) malonate semialdehyde: from Cg10062 activity in the presence and absence of MSAD; for Product Ratio (%) acetaldehyde: * from non-enzymatic decarboxylation of malonate semialdehyde; for Product Ratio (%) malonate semialdehyde: ACA substrate, pH 8.0, 25° C.
Experimental: Steady-state kinetics were carried out using a Molecular Devices SpectraMax iD3 multi-mode microplate reader and Shimadzu UV2600 spectrophotometer. All assays were carried out in triplicate at 25° C. in 100 mM sodium phosphate pH 8.0 with a final volume of 200 μL, unless otherwise specified. The reduction of acetaldehyde by NADH-dependent alcohol dehydrogenase (ADH) was monitored by following the oxidation of NADH at 340 nm (ε=6220 M^−1 cm^−1).
All stock solutions, except ADH, required for the kinetics assays used for determining hydratase and hydratase/decarboxylase activities were prepared in 100 mM sodium phosphate pH 8.0. […] Stock solutions of ADH were prepared using deionized water, as recommended by the manufacturer. […] The final pH of each assay was 8.
The amount of enzyme used in each assay was varied in order to observe measurable activity. Thus, the rates obtained from this experiment were not used directly to compare the enzyme activity. These activities were only used for establishing the product profile of each enzyme. The ratios of MSA and acetaldehyde formed by each enzyme was determined by the coupled enzyme assay (FIG. 13), using the differences in rates in the presence and absence of MSAD (Table 10). […] All other components used for steady-state kinetics were identical to those used in the initial screening assays.

[7] = cited from earlier work; for activity relative to the Cg10062 / product of ACA hydration: previously described variants, in words

## C#CC(=O)O [ACA, acetylenecarboxylic acid]
[1]; ACA hydration, relative to E114D
  kcat fold higher than Cg10062 (E114D): 1.5 fold
[1]; ACA hydration, relative to E114Q
  kcat fold higher than Cg10062 (E114Q): 3 fold
[1]; ACA hydration, relative to wild-type Cg10062
  overall catalytic efficiency relative to wild-type: comparable to that of the wild-type enzyme
[1]; ACA, 100 mM sodium phosphate pH 8.0, 25 °C
  kcat: 1.04 ± 0.07 s⁻¹

## O=[PH]([O-])[O-].[Na+].[Na+] [sodium phosphite]
[2]
  Km: 778 ± 44 µM
  kcat: 3.45 ± 0.06 s⁻¹

B1: Corynebacterium glutamicum Cg10062 variant E114N, SEQ ID NO: 62 (Corynebacterium glutamicum ATCC 13032; E115N) (protein)
chain: PTYTCWSQRIRISREAKQRIAEAITDAHHELAHAPKYLVQVIFNEVEPDSYFIAAQSASENHIWVQATIRSGRTEKQKEELLLRLTQEIALILGIPNEEVWVYITEIPGSNMTNYGRLLMEPGEEEKWFNSLPEGLRERLTELEGSSEENLYFQGLEHHHHHH
[3]
  Km: 45 ± 1 µM

B2: E. coli 3-hydroxy acid dehydrogenase YdfG, SEQ ID NO: 75 (Escherichia coli K-12) (protein)
chain: MIVLVTGATAGFGECITRRFIQQGHKVIATGRRQERLQELKDELGDNLYIAQLDVRNRAAIEEMLASLPAEWCNIDILVNNAGLALGMEPAHKASVEDWETMIDTNNKGLVYMTRAVLPGMVERNHGHIINIGSTAGSWPYAGGNVYGATKAFVRQFSLNLRTDLHGTAVRVTDIEPGLVGGTEFSNVRFKGDDGKAEKTYQNTVALTPEDVSEAVWWVSTLPAHVNINTLEMMPVTQSYAGLNVHRQENLYFQGLEHHHHHH
[4]
  Km: 137 ± 18 µM
  kcat: 6.62 ± 0.43 s⁻¹
  kcat/Km: 48300 ± 7100 M⁻¹ s⁻¹

B3: P. putida KT2440 3-hydroxyisobutyrate dehydrogenase MmsB, SEQ ID NO: 76 (Pseudomonas putida KT2440) (protein)
chain: MRIAFIGLGNMGAPMARNLIKAGHQLNLFDLNKAVLAELAELGGQISPSPKDAAANSELVITMLPAAAHVRSVYLNEDGVLAGIRPGTPTVDCSTIDPQTARDVSKAAAAKGVDMGDAPVSGGTGGAAAGTLTFMVGASTELFASLKPVLEQMGRNIVHCGEVGTGQIAKICNNLLLGISMIGVSEAMALGNALGIDTKVLAGIINSSTGRCWSSDTYNPWPGIIETAPASRGYTGGFGAELMLKDLGLATEAARQAHQPVILGAVAQQLYQAMSLRGEGGKDFSAIVEGYRKKDENLYFQGLEHHHHHH
[5]
  Km: 2220 ± 192 µM
  kcat: 101 ± 5 s⁻¹
  kcat/Km: 45500 ± 5900 M⁻¹ s⁻¹

B4: Corynebacterium glutamicum Cg10062, wild-type, SEQ ID NO: 59 (Corynebacterium glutamicum ATCC 13032) (protein)
chain: PTYTCWSQRIRISREAKQRIAEAITDAHHELAHAPKYLVQVIFNEVEPDSYFIAAQSASENHIWVQATIRSGRTEKQKEELLLRLTQEIALILGIPNEEVWVYITEIPGSNMTEYGRLLMEPGEEEKWFNSLPEGLRERLTELEGSSEENLYFQGLEHHHHHH
[3]
  Km: 66 ± 4 µM
  kcat: 8.21 s⁻¹
  kcat/Km: 124000 M⁻¹ s⁻¹

B5: Cg10062: Tautomerase superfamily enzyme from Corynebacterium glutamicum, SEQ ID NO: 21; His6-tagged form SEQ ID NO: 59 (protein)
chain: PTYTCWSQRIRISREAKQRIAEAITDAHHELAHAPKYLVQVIFNEVEPDSYFIAAQSASENHIWVQATIRSGRTEKQKEELLLRLTQEIALILGIPNEEVWVYITEIPGSNMTEYGRLLMEPGEEEKWFNSLPEGLRERLTELEGSSE
modifications: Cg10062 from Corynebacterium glutamicum codon-optimized for Escherichia coli
[6]
  Rate in the absence of MSAD: 120 µM/min
  Rate in the presence of MSAD: 146 µM/min
  Product Ratio (%) acetaldehyde: 81%
  Product Ratio (%) malonate semialdehyde: 19%
[7]; background statement
  acetaldehyde in product mixture from ACA: 75%
  malonate semialdehyde in product mixture from ACA: 25%

B6: Cg10062(E114Q): Previously described Cg10062 variant with E114Q mutation, SEQ ID NO: 22 and 60 (protein)
chain: PTYTCWSQRIRISREAKQRIAEAITDAHHELAHAPKYLVQVIFNEVEPDSYFIAAQSASENHIWVQATIRSGRTEKQKEELLLRLTQEIALILGIPNEEVWVYITEIPGSNMTQYGRLLMEPGEEEKWFNSLPEGLRERLTELEGSSE
modifications: Cg10062(E114Q) from Corynebacterium glutamicum codon-optimized for Escherichia coli
[6]
  Rate in the absence of MSAD: no activity
  Rate in the presence of MSAD: 102 µM/min
  Product Ratio (%) acetaldehyde: <1* %
  Product Ratio (%) malonate semialdehyde: >99%
[7]
  activity relative to the Cg10062: significantly lower activity
  product of ACA hydration: MSA exclusively

B7: Cg10062(E114D): Previously described Cg10062 variant with E114D mutation, SEQ ID NO: 23 and 61 (protein)
chain: PTYTCWSQRIRISREAKQRIAEAITDAHHELAHAPKYLVQVIFNEVEPDSYFIAAQSASENHIWVQATIRSGRTEKQKEELLLRLTQEIALILGIPNEEVWVYITEIPGSNMTDYGRLLMEPGEEEKWFNSLPEGLRERLTELEGSSE
modifications: Cg10062(E114D) from Corynebacterium glutamicum codon-optimized for Escherichia coli
[6]
  Rate in the absence of MSAD: no activity
  Rate in the presence of MSAD: 90 µM/min
  Product Ratio (%) acetaldehyde: <1* %
  Product Ratio (%) malonate semialdehyde: >99%
[7]
  activity relative to the Cg10062: significantly lower activity
  product of ACA hydration: MSA exclusively
